The text below walks through data of article PMC3153955.

Usually Km stands for the substrate concentration at which the rate is half of its maximum. What is called kcat is the number of substrate molecules converted per active site and unit of time at saturation.

The series deals with C[C@@H]1O[C@@H]1P(=O)(O)O. The series can be described thus: pyruvate kinase-lactate dehydrogenase coupled assay. The class given is biochemical, Streptomyces wedmorensis. Particulars: 1 mM ATP, 10 mM MgCl2, 100 mM KCl, pH 7.2, 25 °C.

Take “FomA (fosfomycin resistance kinase FomA) (Streptomyces wedmorensis)”: the Km amounted to 9.9 ± 0.7 µM and the kcat came to 155.9 ± 1.5 s⁻¹.
